Reference: paper PMC5065237, “Investigation into the Mode of Phosphate Activation in the 4-Hydroxy-4-Methyl-2-Oxoglutarate/4-Carboxy-4-Hydroxy-2-Oxoadipate Aldolase from Pseudomonas putida F1” (PLoS ONE, 2016)

Key:
Assay in all cases: purified protein
Type in all cases: biochemical, Pseudomonas putida
[1] = tested on: T1, CC(O)(CC(=O)C(=O)O)C(=O)O; conditions: without Pi, 1 mM MgCl2, 0.1 M HEPES pH 8.0, 25 °C, racemic substrate
T1 construct: recombinant from pT7-7, expressed in E. coli; chelex-treated apo-enzyme reconstituted with MgCl2

O=C(O)CC(=O)C(=O)O = tested on: T2, O=C(O)CC(=O)C(=O)O; conditions: without Pi, 1 mM MgCl2, 0.1 M HEPES pH 8.0, 25 °C
T2 construct: recombinant from pT7-7, expressed in E. coli; chelex-treated apo-enzyme reconstituted with MgCl2

[2] = tested on: T3, O=C(O)CC(O)(CC(=O)C(=O)O)C(=O)O; conditions: without Pi, 1 mM MgCl2, 0.1 M HEPES pH 8.0, 25 °C, racemic substrate
T3 construct: recombinant from pT7-7, expressed in E. coli; chelex-treated apo-enzyme reconstituted with MgCl2

HMG/CHA aldolase (Pseudomonas putida F1; R195A)
Km [1]: 1370 ± 58 µM
kcat [1]: 6.72 ± 0.19 s⁻¹
kcat/Km [1]: 4910 ± 250 M⁻¹ s⁻¹

HMG/CHA aldolase (Pseudomonas putida F1; H75A)
Km [1]: 389 ± 22 µM
kcat [1]: 22.3 ± 0.75 s⁻¹
kcat/Km [1]: 57300 ± 3800 M⁻¹ s⁻¹

HMG/CHA aldolase (Pseudomonas putida F1; G144V)
Km [1]: 1390 ± 160 µM
kcat [1]: 0.215 ± 0.015 s⁻¹
kcat/Km [1]: 155 ± 21 M⁻¹ s⁻¹

HMG/CHA aldolase (Pseudomonas putida F1; T145A)
Km [1]: 1080 ± 88 µM
kcat [1]: 0.889 ± 0.057 s⁻¹
kcat/Km [1]: 823 ± 85 M⁻¹ s⁻¹

HMG/CHA aldolase (Pseudomonas putida F1)
Km [1]: 188 ± 11 µM
kcat [1]: 15.6 ± 0.54 s⁻¹
kcat/Km [1]: 83000 ± 5600 M⁻¹ s⁻¹
Km (O=C(O)CC(=O)C(=O)O): 298 ± 30 µM
kcat (O=C(O)CC(=O)C(=O)O): 1.86 ± 0.18 s⁻¹
kcat/Km (O=C(O)CC(=O)C(=O)O): 6240 ± 870 M⁻¹ s⁻¹
Km [2]: 15.0 ± 1.3 µM
kcat [2]: 13.4 ± 0.31 s⁻¹
kcat/Km [2]: 893000 ± 80000 M⁻¹ s⁻¹

HMG/CHA aldolase (Pseudomonas putida F1; R40A)
Km [1]: 304 ± 27 µM
kcat [1]: 6.7 ± 0.14 s⁻¹
kcat/Km [1]: 22000 ± 2100 M⁻¹ s⁻¹

HMG/CHA aldolase (Pseudomonas putida F1; N71A)
Km [1]: 796 ± 70 µM
kcat [1]: 0.014 ± 0.0011 s⁻¹
kcat/Km [1]: 17.6 ± 2.1 M⁻¹ s⁻¹

HMG/CHA aldolase (Pseudomonas putida F1; K147A)
Km [1]: 2010 ± 210 µM
kcat [1]: 0.014 ± 0.00039 s⁻¹
kcat/Km [1]: 6.97 ± 0.75 M⁻¹ s⁻¹

HMG/CHA aldolase (Pseudomonas putida F1; R123K)
Km [1]: 3210 ± 210 µM
kcat [1]: 0.086 ± 0.0046 s⁻¹
kcat/Km [1]: 26.7 ± 2.3 M⁻¹ s⁻¹
